Experiment [1] has as its target T1, human serum albumin (human, UniProt P02768 25-609).
T1 construct: also called HSA; SA
Briefly: SPR (ProteOn XPR36), target on GLC chip.

For experiment [2], the target named is T2, biotinylated extracellular domain of human CD33 (SEQ ID NO: 87), Fc and Avi tagged (human, UniProt P20138 18-259, biotinylated with BirA-GST (Avi tag)).
T2 construct: also called hCD33; human target hCD33
Briefly: SPR (ProteOn XPR36), target on GLC chip, DARPin as analyte.

For experiment [3], the target named is T3, biotinylated extracellular domain of human CD123 (SEQ ID NO: 88), Fc and Avi tagged (human, UniProt P26951 19-303, biotinylated with BirA-GST (Avi tag)).
T3 construct: also called hCD123
T3 sequence: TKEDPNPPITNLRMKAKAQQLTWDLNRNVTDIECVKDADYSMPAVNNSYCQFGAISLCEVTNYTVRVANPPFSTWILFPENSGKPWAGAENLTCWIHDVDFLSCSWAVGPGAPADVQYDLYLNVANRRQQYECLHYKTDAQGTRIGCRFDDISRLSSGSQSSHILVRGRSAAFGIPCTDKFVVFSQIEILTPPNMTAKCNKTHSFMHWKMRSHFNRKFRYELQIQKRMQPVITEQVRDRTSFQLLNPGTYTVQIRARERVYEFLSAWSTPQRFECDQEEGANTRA
The description is as above.

The target in experiment [4] is T4, hCD33 and hCD123 immobilized simultaneously on one switchSENSE chip (ratio 2:1, CD33:CD123) (human, UniProt P20138 18-259; P26951 19-305, limits assumed).
T4 construct: Not a complex: two separate ligands on one surface; used for avidity values and for off-rates; also called both ligands; both targets attached to the surface of the chip
T4 sequence (P20138 18-259 limits assumed, chain 1 of 2, one chain of several): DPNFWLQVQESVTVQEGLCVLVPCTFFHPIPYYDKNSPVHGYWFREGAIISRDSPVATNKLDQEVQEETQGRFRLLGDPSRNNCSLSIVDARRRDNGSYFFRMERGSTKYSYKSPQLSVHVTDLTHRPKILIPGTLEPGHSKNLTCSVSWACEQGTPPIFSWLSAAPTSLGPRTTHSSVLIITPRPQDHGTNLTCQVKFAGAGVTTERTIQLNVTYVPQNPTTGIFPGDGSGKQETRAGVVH
Briefly: switchSENSE, CD33 and CD123 on one chip; fast phase (affinity); fast phase (affinity). As for the experimental part:
(§1) The designed ankyrin repeat proteins: DARPin® protein #20, DARPin® protein #21, DARPin® protein #22, DARPin® protein #27, DARPin® protein #40 and DARPin® protein #41 were tested in a concentration of 0.16 and 64 nM (in a buffer PE140 containing 10 mM Na2HPO4/NaH2PO4, 140 mM NaCl, 0.05% Tween20, 50 μM EDTA, 50 μM EGTA) for binding against two ligands hCD33 and hCD123, which both were immobilized simultaneously to DNA nanolevers, on the surface, at a pre-defined ratio (2:1, CD33:CD123) and 10% density (100:50) on an ADP-48-1-0 chip, where 100% density 1000 receptors/μm2 (preincubated R1-B48-CD123 and G1-A48-CD33 (100 nM) diluted in cNL-48 (dark)). Briefly the following steps were performed: [0724] Conjugation. Amine coupling of the two ligands (CD33 and CD123) to the DNA nanolever (A48, B48, respectively) and purification of the conjugates using the proFIRE® solution (Dynamic Biosensors GmbH) at 25° C. [0725] Evaluation of all the combined affinity and avidity of all different proteins to both ligands attached on the surface of an ADP chip using a DRX+ instrument (dynamic BIOSENSORS). [0726] Statistical analysis (repeatability from 2 to 5 times) including regeneration of the chip surface every concentration analyzed and long dissociation times and data were fitted using a bi-exponential global fit.

The target of experiment [5] is T5, hCD123 (recombinant, construct not stated) (human, UniProt P26951 19-305, limits assumed).
T5 construct: also called CD123 (Ligand 2)
T5 sequence (looked up): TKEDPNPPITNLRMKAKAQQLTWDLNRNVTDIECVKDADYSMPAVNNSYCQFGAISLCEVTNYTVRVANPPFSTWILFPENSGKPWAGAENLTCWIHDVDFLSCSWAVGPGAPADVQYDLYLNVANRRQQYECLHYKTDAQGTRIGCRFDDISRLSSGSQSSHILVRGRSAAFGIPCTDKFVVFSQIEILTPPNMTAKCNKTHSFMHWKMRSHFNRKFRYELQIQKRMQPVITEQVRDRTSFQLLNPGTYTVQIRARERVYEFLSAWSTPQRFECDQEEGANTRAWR
As to the kind of experiment: switchSENSE, hCD33 and hCD123 co-immobilised 2:1; panel headed CD123, column KD1 (affinity). As for the experimental part:
as §1

Experiment [6] has as its target T4, hCD33 and hCD123 immobilized …. Briefly: switchSENSE, hCD33 and hCD123 co-immobilised 2:1; panel headed CD123, column KD2 (avidity, simultaneous binding of CD33 and CD123 per paragraph 696). Here is the method: as §1

T2 sequence (P20138 18-259 R69G): as the sequence (P20138 18-259 limits assumed, chain 1 of 2, one chain of several) above, with R52G counted along it
T1 sequence (P02768 25-609 limits assumed): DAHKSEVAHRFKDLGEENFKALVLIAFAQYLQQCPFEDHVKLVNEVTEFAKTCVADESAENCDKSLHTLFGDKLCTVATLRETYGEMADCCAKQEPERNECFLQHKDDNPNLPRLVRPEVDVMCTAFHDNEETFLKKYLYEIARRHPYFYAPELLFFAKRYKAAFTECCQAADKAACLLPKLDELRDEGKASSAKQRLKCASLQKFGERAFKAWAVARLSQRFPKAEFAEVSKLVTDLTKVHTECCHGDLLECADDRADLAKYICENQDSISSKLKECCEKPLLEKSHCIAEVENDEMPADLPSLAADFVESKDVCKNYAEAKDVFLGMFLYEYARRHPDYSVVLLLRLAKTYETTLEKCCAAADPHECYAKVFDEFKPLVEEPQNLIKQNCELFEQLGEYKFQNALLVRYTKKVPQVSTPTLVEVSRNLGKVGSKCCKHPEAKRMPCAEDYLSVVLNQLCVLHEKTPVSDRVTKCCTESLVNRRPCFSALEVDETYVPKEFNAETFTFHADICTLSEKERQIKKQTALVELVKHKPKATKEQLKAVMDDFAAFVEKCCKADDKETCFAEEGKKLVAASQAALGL

B1: DARPin® protein #27 (designed binder)
chain: DLGKKLLEAALEGQLDEVRELLKAGADVNAKDQEGYTPLHLAAALGHLEIVEVLLKAGADVNAKDSIGRTPLHLAAYKGHLEIVEVLLKAGADVNAQDLLGETPADLAAEQGHQDIAEVLQKAAGSPTPTPTTPTPTPTTPTPTPTGSDLGVKLLLAASRGQLDEVRILLKAGADVNAKDIDEGYTPLHIAAYYGHLEIVEVLLKAGADVNAKDRYGKTPLHLAAISGHLEIVEVLLKAGADVNAQDDKGDTPADLAADYGHQDIAEVLQKAAGSPTPTPTTPTPTPTTPTPTPTGSDLGQKLLEAAWAGQDDEVRELLKAGADVNAKNSRGWTPLHTAAQTGHLEIFEVLLKAGADVNAKDDKGVTPLHLAAALGHLEIVEVLLKAGADVNAQDSWGTTPADLAAKYGHEDIAEVLQKAA
notes: CD123-CD33-CD3; also called αCD123-aCD33-αCD3_1; not shown: N-terminal His-tag
For orientation: koff means the rate constant with which the complex falls apart. Consider B1, for which, in experiment [1], the binding result is “no binding (tested: 100 nM (highest concentration))”. In addition, the Kd in experiment [2] was 5.7 nM; in experiment [3] it was 19 nM; in experiment [5], 4.5 nM; in experiment [6], 0.3 nM. Also, the koff in experiment [4] is around 0.01 s⁻¹.
